One assay relates to Okp1‐Ame1. Nature of the assay: GST pulldown, Okp1-Ame1. The assay is classed as binding, Saccharomyces cerevisiae. As to conditions: glutathione agarose, 4°C, 1 h, 20 mM Tris, pH 8.5, 200 mM NaCl, 1 mM TCEP; SDS-PAGE. On the procedure: (§1) Figure 3 Biochemical investigation of Okp1‐Ame1‐Cse4^END binding and disruptive point mutations • A GST pulldown assay for Cse4 binding. The indicated COMA complex proteins were tested for their association with immobilized GST‐Cse4^END. • B Fluorescence polarization assay for quantification of Cse4 binding affinities (n = 3 independent replicates). FITC‐labeled Cse4^END peptide was incubated with increasing concentrations of the indicated protein complexes. See also Table 1. • C, D GST pulldown assays as in panel A. Cse4^END and its mutants (L41D, L42D, or L41,42A) were tested in panel C. The indicated Okp1‐Ame1 complexes were tested for their association with GST‐Cse4^END in panel D. Source data are available online for this figure.
(§2) GST‐Cse4^28‐60 was mixed with Okp1‐Ame1, COMA, COMA‐Nkp1‐Nkp2, or Okp1^125‐275 – Ame1^124‐231 and the mixed samples were incubated with glutathione agarose resin at 4°C for 1 h in binding buffer containing 20 mM Tris, pH 8.5, 200 mM NaCl and 1 mM TCEP. Resin was washed at least three times with the same buffer to remove unbound protein, and bound protein then eluted with glutathione. Samples of input and eluate were collected for analysis by SDS–PAGE.

For another assay, the system named is COMA complex. The experiment in a line: GST pulldown, COMA. The assay is classed as binding, Saccharomyces cerevisiae. The note with it: glutathione agarose, 4°C, 1 h, 20 mM Tris, pH 8.5, 200 mM NaCl, 1 mM TCEP; compared with COMA-Nkp1-Nkp2. On the procedure:
as §1, §2

A further assay deals with COMA‐Nkp1‐Nkp2 complex. The experiment in a line: GST pulldown, COMA-Nkp1-Nkp2. The assay is classed as binding, Saccharomyces cerevisiae. As to conditions: glutathione agarose, 4°C, 1 h, 20 mM Tris, pH 8.5, 200 mM NaCl, 1 mM TCEP; compared with COMA. As for the experimental part: as §1, §2
Assay [1] deals with minimal Okp1‐Ame1 complex (Okp1^125‐275‐Ame1^124‐231). The experiment in a line: GST pulldown, minimal Okp1-Ame1. Type of assay: binding, Saccharomyces cerevisiae. As to conditions: glutathione agarose, 4°C, 1 h, 20 mM Tris, pH 8.5, 200 mM NaCl, 1 mM TCEP. As for the experimental part:
Figure EV3 Further biochemical characterization of the Okp1‐Ame1‐Cse4^END interaction • Pulldown assay showing binding between the truncated Okp1‐Ame1 complex used for crystallography (Okp1^125‐275l‐Ame1^124‐231) and GST‐Cse4^END. • Recombinant proteins used for pulldowns in Fig 3 were tested for their association with GST to determine the level of non‐specific binding. Results of a GST pulldown assay are shown. • The minimal Okp1‐Ame1 complex used for crystallography was tested for its association with FITC‐Cse4^END in a fluorescence polarization experiment. The measured dissociation constant is ~750 nM (see Materials and Methods; n = 3 independent experiments). • GST‐Cse4^END and its mutants were tested for Okp1‐Ame1 binding. • Full‐length mutant Okp1‐Ame1 complex (EYAA or I195Y as indicated) was tested for its association with FITC‐Cse4^END. • Various Okp1‐Ame1 mutants (indicated above) were tested for binding to GST‐Cse4^END. • Various Okp1‐Ame1 mutants were tested for Cse4^END binding as in panel F. Source data are available online for this figure.
GST‐Cse4^28‐60 was mixed with Okp1‐Ame1, COMA, COMA‐Nkp1‐Nkp2, or Okp1^125‐275 – Ame1^124‐231 and the mixed samples were incubated with glutathione agarose resin at 4°C for 1 h in binding buffer containing 20 mM Tris, pH 8.5, 200 mM NaCl and 1 mM TCEP. […]

In assay [2] the target is T1, Okp1‐Ame1 (WT, full length) with 10 μM Nkp1‐Nkp2 (S. cerevisiae (budding yeast), UniProt P53298 1-406; P38313 1-324; Q12493 1-238; Q06162 1-153).
T1 construct: Okp1, budding yeast, full length; Ame1, budding yeast, full length; Nkp1, budding yeast, full length; Nkp2, budding yeast, full length; the methods call it a titrated complex (Okp1‐Ame1 with Nkp1/2); also called Okp1‐Ame1 W(T) + 10 μM Nkp1‐Nkp2; Okp1‐Ame1 with Nkp1/2; source: E. coli, purified heterodimers Okp1‐Ame1 and Nkp1‐Nkp2, mixed; copies: + + +
The experiment in a line: fluorescence polarisation; as a2 (20 nM FITC‐Cse4^28‐60, full-length Okp1‐Ame1 titrated, 200 mM NaCl) with 10 μM Nkp1‐Nkp2 added in excess. The note with it: both partners purified. For orientation: In fluorescence polarisation assays a small probe gives low polarisation when free and higher when bound to something large.

Assay [3] has as its target T2, minimal Okp1^125‐275 – Ame1^124‐231 heterodimer (S. cerevisiae (budding yeast), UniProt P53298 125-275; P38313 124-231).
T2 construct: Okp1, budding yeast, residues 125-275; Ame1, budding yeast, residues 124-231; no tag; also called truncated Okp1‐Ame1 complex; minimal Okp1‐Ame1 complex used for crystallography; source: E. coli Rosetta 2 (pLysS), pet-Duet co-expression, purified (TALON, TEV cleavage, ion exchange, gel filtration); not shown: His6, N-terminal, cleaved; copies: 1 + 1
Nature of the assay: fluorescence polarisation; 20 nM FITC‐Cse4^28‐60, truncated Okp1‐Ame1 titrated; 100 mM HEPES pH 7.5, 600 mM NaCl, 1 mM TCEP; 30 min at room temperature; 20 μM points left out of the fit. The note with it: both partners purified.

The target in assay [4] is T3, Okp1‐Ame1 heterodimer, full length, wild type (S. cerevisiae (budding yeast), UniProt P53298 1-406; P38313 1-324).
T3 construct: Okp1, inner kinetochore (Ctf19c) protein of budding yeast, full length; Ame1, inner kinetochore (Ctf19c) protein of budding yeast, full length; also called Okp1‐Ame1 (WT); FL; copies: 1 + 1
Nature of the assay: fluorescence polarisation; 20 nM FITC‐Cse4^28‐60, full-length Okp1‐Ame1 titrated; 100 mM HEPES pH 7.5, 200 mM NaCl, 1 mM TCEP; 30 min at room temperature; one site – total binding fit; triplicate. As to conditions: both partners purified.

The target of assay [5] is T4, Okp1(EYAA)‐Ame1, full length (S. cerevisiae (budding yeast), UniProt P53298 1-406; P38313 1-324, E235A | Y238A).
T4 construct: Okp1, budding yeast, full length, with E235A and Y238A; Ame1, budding yeast, full length; also called okp1‐E235,Y238A; okp1‐E235A,Y238A; source: recombinant; copies: 1 + 1
Described as above. The note with it: both partners purified.

Assay [6] has as its target T5, Okp1‐Ame1(I195Y), full length (S. cerevisiae (budding yeast), UniProt P53298 1-406; P38313 1-324, I195Y).
T5 construct: Okp1, budding yeast, full length; Ame1, budding yeast, full length, with I195Y; source: recombinant; copies: 1 + 1
Described as above. The note with it: both partners purified.

The target of another assay is T6, Okp1^125‐275 (S. cerevisiae (budding yeast), UniProt P53298 125-275).
T6 construct: Okp1, budding yeast, residues 125-275; Single chain of m2, written for the pairwise contacts of the crystal structure; also called Okp1 (chain of the crystallised minimal heterodimer); source: E. coli Rosetta 2 (pLysS), co-expressed with Ame1^124‐231, purified; not shown: His6, N-terminal, cleaved
Nature of the assay: crystal structure; Okp1^125‐275 – Ame1^124‐231 mixed with Cse4^28‐60 peptide 1:1.3; hanging drop, 18°C, 19% PEG 8000, 0.55 M lithium sulfate; 1.8 Å, space group P4(2)2(1)2. The note with it: both partners purified.

Assay [7] deals with T2, minimal Okp1^125‐275 – Ame1^124‐231 …. Described as above. As to conditions: both partners purified.
The next assay concerns the target T7, Ame1^124‐231 (S. cerevisiae (budding yeast), UniProt P38313 124-231).
T7 construct: Ame1, budding yeast, residues 124-231; no tag; Single chain of m2, written for the pairwise contacts of the crystal structure; also called Ame1 (chain of the crystallised minimal heterodimer); source: E. coli Rosetta 2 (pLysS), co-expressed with Okp1^125‐275, purified
Described as above. The note with it: both partners purified.

The target in assay [8] is T3, Okp1‐Ame1 heterodimer, full length, …. The experiment in a line: pull-down; GST‐Cse4^28‐60 (or GST) mixed with prey, held on glutathione agarose resin, 4°C 1 h, 20 mM Tris pH 8.5, 200 mM NaCl, 1 mM TCEP; eluted with glutathione; SDS–PAGE. The note with it: both partners purified.
In assay [9] the target is T8, six‐protein COMA‐Nkp1‐Nkp2 complex (S. cerevisiae (budding yeast), UniProt P53298 1-406; P38313 1-324; Q02732 1-369; Q06675 1-368; Q12493 1-238; Q06162 …).
T8 construct: Okp1, budding yeast, full length; Ame1, budding yeast, full length; Ctf19, budding yeast, full length; Mcm21, budding yeast, full length; Nkp1, budding yeast, full length; Nkp2, budding yeast, full length; constructs as in Hinshaw & Harrison 2019; source: E. coli, purified heterodimers Okp1‐Ame1, Ctf19‐Mcm21 and Nkp1‐Nkp2; copies: + + + + +
The assay is described as above. As to conditions: both partners purified.

For assay [10], the target named is T2, minimal Okp1^125‐275 – Ame1^124‐231 …. Described as above. The note with it: both partners purified.
The target in assay [11] is T9, four‐protein COMA complex (Ctf19‐Okp1‐Mcm21‐Ame1) (S. cerevisiae (budding yeast), UniProt P53298 1-406; P38313 1-324; Q02732 1-369; Q06675 1-368).
T9 construct: Okp1, budding yeast, full length; Ame1, budding yeast, full length; Ctf19, budding yeast, full length; Mcm21, budding yeast, full length; constructs as in Hinshaw & Harrison 2019; source: E. coli, purified heterodimers Okp1‐Ame1 and Ctf19‐Mcm21; copies: + + +
Described as above. As to conditions: both partners purified.

Where no end group is shown, it is not given here.

T2 sequence (P53298 125-275, chain 1 of 2): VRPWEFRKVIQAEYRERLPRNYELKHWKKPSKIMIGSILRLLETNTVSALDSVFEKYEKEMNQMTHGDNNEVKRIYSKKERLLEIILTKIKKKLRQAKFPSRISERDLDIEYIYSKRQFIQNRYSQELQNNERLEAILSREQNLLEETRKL
T2 sequence (P38313 124-231, chain 2 of 2): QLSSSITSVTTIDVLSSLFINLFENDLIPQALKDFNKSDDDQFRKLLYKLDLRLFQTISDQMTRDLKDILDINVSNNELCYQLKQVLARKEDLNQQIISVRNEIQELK
T3 sequence (P53298 whole entry, chain 1 of 2): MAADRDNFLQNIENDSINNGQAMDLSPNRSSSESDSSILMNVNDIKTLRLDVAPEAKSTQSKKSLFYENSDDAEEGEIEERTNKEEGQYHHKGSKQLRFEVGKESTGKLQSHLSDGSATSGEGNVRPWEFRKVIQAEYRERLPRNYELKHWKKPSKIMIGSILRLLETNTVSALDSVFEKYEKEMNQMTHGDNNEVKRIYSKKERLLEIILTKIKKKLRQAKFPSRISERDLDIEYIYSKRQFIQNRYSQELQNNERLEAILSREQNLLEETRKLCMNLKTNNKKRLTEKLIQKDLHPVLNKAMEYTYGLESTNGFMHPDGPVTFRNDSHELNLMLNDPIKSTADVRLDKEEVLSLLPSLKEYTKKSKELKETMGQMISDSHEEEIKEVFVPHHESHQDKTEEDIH
T3 sequence (P38313 whole entry, chain 2 of 2): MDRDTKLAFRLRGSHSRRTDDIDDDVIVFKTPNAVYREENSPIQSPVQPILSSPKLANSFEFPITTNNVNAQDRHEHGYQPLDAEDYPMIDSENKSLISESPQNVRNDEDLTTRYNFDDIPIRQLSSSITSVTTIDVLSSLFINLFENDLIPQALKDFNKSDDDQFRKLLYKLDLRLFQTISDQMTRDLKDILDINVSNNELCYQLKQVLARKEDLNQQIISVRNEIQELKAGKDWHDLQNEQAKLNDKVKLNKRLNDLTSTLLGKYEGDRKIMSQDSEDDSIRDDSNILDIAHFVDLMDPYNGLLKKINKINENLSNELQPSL
T9 sequence (P53298 whole entry, chain 1 of 4): as the sequence (P53298 whole entry, chain 1 of 2) above
T9 sequence (P38313 whole entry, chain 2 of 4): as the sequence (P38313 whole entry, chain 2 of 2) above
T9 sequence (Q02732 whole entry, chain 3 of 4): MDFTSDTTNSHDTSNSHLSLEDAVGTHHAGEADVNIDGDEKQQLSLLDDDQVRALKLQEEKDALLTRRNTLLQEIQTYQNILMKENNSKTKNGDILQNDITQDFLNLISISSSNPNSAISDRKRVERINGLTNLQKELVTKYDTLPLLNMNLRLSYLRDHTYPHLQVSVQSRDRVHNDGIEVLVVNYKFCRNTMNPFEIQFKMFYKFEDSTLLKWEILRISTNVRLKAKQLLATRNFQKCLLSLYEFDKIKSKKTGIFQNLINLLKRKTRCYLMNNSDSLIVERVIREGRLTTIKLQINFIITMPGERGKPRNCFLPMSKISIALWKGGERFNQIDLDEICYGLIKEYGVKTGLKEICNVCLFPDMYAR
T9 sequence (Q06675 whole entry, chain 4 of 4): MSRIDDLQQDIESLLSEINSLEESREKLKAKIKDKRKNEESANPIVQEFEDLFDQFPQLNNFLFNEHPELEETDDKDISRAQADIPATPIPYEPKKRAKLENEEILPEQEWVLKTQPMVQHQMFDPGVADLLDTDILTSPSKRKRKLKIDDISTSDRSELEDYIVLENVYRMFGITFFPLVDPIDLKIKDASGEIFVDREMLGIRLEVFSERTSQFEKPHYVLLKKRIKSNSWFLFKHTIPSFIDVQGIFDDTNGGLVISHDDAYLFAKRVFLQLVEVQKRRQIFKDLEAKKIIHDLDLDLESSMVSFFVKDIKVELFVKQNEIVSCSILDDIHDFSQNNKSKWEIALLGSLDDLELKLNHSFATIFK
T5 sequence (P53298 whole entry, chain 1 of 2): as the sequence (P53298 whole entry, chain 1 of 2) above
T5 sequence (P38313 whole entry I195Y, chain 2 of 2): as the sequence (P38313 whole entry, chain 2 of 2) above, with I195Y counted along it
T1 sequence (P53298 whole entry, chain 1 of 4): as the sequence (P53298 whole entry, chain 1 of 2) above
T1 sequence (P38313 whole entry, chain 2 of 4): as the sequence (P38313 whole entry, chain 2 of 2) above
T1 sequence (Q12493 whole entry, chain 3 of 4): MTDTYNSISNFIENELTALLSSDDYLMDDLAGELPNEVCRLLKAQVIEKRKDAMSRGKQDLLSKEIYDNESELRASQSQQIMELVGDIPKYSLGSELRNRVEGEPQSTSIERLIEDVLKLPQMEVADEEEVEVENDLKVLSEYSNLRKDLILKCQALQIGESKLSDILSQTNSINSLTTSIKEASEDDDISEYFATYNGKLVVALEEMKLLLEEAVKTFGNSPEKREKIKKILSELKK
T1 sequence (Q06162 whole entry, chain 4 of 4): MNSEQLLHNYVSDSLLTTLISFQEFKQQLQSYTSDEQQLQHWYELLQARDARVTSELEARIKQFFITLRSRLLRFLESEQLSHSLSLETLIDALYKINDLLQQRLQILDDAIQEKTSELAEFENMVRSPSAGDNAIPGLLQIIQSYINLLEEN
T6 sequence (P53298 125-275): as the sequence (P53298 125-275, chain 1 of 2) above
T4 sequence (P53298 whole entry E235A/Y238A, chain 1 of 2): as the sequence (P53298 whole entry, chain 1 of 2) above, with E235A, Y238A counted along it
T4 sequence (P38313 whole entry, chain 2 of 2): as the sequence (P38313 whole entry, chain 2 of 2) above
T7 sequence (P38313 124-231): as the sequence (P38313 124-231, chain 2 of 2) above

For “GST‐Cse4^END: Cse4 residues 28–60 with TEV‐cleavable N‐terminal Glutathione S‐transferase tag (AGDQQSINDRALSLLQRTRATKNLFPRREERRR; not fully specified (N-terminus))”, the “binding in GST pulldown” value is “bound Okp1‐Ame1” with Okp1‐Ame1, “equally well” with COMA complex, “equally well” in the assay with COMA‐Nkp1‐Nkp2 complex and “preserved GST‐Cse4^END binding” in assay [1].

On to “cse4‐L41,42A: Cse4^END L41,42A mutant, GST fusion (AGDQQSINDRALSAAQRTRATKNLFPRREERRR; not fully specified (N-terminus))”, for which the “binding in GST pulldown” value in the assay with Okp1‐Ame1 is given as “failed to bind”.

“cse4‐L41D: Cse4^END L41D mutant, GST fusion (GST-TEV-Cse4^28-60(L41D)) (AGDQQSINDRALSDLQRTRATKNLFPRREERRR; not fully specified (N-terminus))”: the “binding in GST pulldown” value in the assay with Okp1‐Ame1 is reported as “failed to bind”.

In the case of “cse4‐L42D: Cse4^END L42D mutant, GST fusion (GST-TEV-Cse4^28-60(L42D)) (AGDQQSINDRALSLDQRTRATKNLFPRREERRR; not fully specified (N-terminus))”, the “binding in GST pulldown” value in the assay on Okp1‐Ame1 was “failed to bind”.

B1: FITC‐Cse4^28‐60 peptide (peptide, UniProt P36012 28-60, looked up)
peptide: AGDQQSINDRALSLLQRTRATKNLFPRREERRR
modifications: not fully specified (N-terminus); also: FITC label, position not given here
notes: Cse4, S. cerevisiae, residues 28-60; also called FITC‐Cse4^END; FITC‐labeled Cse4^END peptide; source: synthetic peptide (Tufts University Core Facility)
With B1, the Kd (usually the equilibrium constant for the complex coming apart) in [2] is 133 nM; in [3], roughly 750 nM; in [4], 152 nM; in assay [5], greater than 3000 nM; in [6], greater than 3000 nM.

B2: Cse4^28‐60 peptide (Cse4^END peptide) (peptide, UniProt P36012 28-60, looked up)
peptide: B1 peptide
notes: Cse4, S. cerevisiae, residues 28-60 (residues 34-46 ordered in the crystal); also called minimal Cse4^END peptide; source: synthetic peptide (Tufts University Core facility)
As to B2, the binding result (with Okp1^125‐275; in [7]; with Ame1^124‐231) was “binds” throughout.

B3: GST‐Cse4^END (GST fusion of Cse4 residues 28–60) (domain or fragment, S. cerevisiae, UniProt P36012 28-60, looked up)
chain: B1 peptide
notes: Cse4, centromeric histone H3 variant of S. cerevisiae, Essential N-terminal Domain, residues 28-60; The GST tag is TEV-cleavable (pLIC vector) but was kept for the pull-downs; also called GST‐Cse4^28‐60; source: E. coli Rosetta 2 (pLysS), purified (glutathione agarose); not shown: GST, N-terminal, kept
B3: the binding result in assay [8], in [9], in assay [10] and in assay [11] was “binds” in each case.

The record behind these values is PMC10702835, “Recognition of centromere‐specific histone Cse4 by the inner kinetochore Okp1‐Ame1 complex” (EMBO Reports, 2023).
